B1: NUDT12: recombinant untagged full-length human NUDT12 (protein, UniProt Q9BQG2 1-462, looked up)
chain: MSSVKRSLKQEIVTQFHCSAAEGDIAKLTGILSHSPSLLNETSENGWTALMYAARNGHPEIVQFLLEKGCDRSIVNKSRQTALDIAVFWGYKHIANLLATAKGGKKPWFLTNEVEECENYFSKTLLDRKSEKRNNSDWLLAKESHPATVFILFSDLNPLVTLGGNKESFQQPEVRLCQLNYTDIKDYLAQPEKITLIFLGVELEIKDKLLNYAGEVPREEEDGLVAWFALGIDPIAAEEFKQRHENCYFLHPPMPALLQLKEKEAGVVAQARSVLAWHSRYKFCPTCGNATKIEEGGYKRLCLKEDCPSLNGVHNTSYPRVDPVVIMQVIHPDGTKCLLGRQKRFPPGMFTCLAGFIEPGETIEDAVRREVEEESGVKVGHVQYVACQPWPMPSSLMIGCLALAVSTEIKVDKNEIEDARWFTREQVLDVLTKGKQQAFFVPPSRAIAHQLIKHWIRINPNL
modifications: full-length
B2: 6×His-SUMO-tagged human NUDT2: recombinant full-length human NUDT2 with the larger 6×-His-SUMO tag (protein, UniProt P50583 1-147, looked up)
chain: MALRACGLIIFRRCLIPKVDNNAIEFLLLQASDGIHHWTPPKGHVEPGEDDLETALRETQEEAGIEAGQLTIIEGFKRELNYVARNKPKTVIYWLAEVKDYDVEIRLSHEHQAYRWLGLEEACQLAQFKEMKAALQEGHQFLCSIEA
modifications: full-length 6xHis-SUMO tag
notes: recombinant full-length human NUDT2 with the larger 6×-His-SUMO tag
B3: nuclease P1: nuclease used to hydrolyze RNAs prior to mass spectrometry (protein, UniProt P24289 1-270, looked up)
Nuclease P1: WGALGHATVAYVAQHYVSPEAASWAQGILGSSSSSYLASIASWADEYRLTSAGKWSASLHFIDAEDNPPTNCNVDYERDCGSSGCSISAIANYTQRVSDSSLSSENHAEALRFLVHFIGDMTQPLHDEAYAVGGNKINVTFDGYHDNLHSDWDTYMPQKLIGGHALSDAESWAKTLVQNIESGNYTAQAIGWIKGDNISEPITTATRWASDANALVCTVVMPHGAAALQTGDLYPTYYDSVIDTIELQIAKGGYRLANWINEIHGSEIAK
B4: NUDT2: recombinant full-length human NUDT2, Nudix hydrolase for Ap4A (protein)
chain: ALRACGLIIFRRHLIPKMDNSTIEFLLLQASDGIHHWTPPKGHVDPGENDLETALRETREETGIEASQLTIIEGFRRELNYVARQKPKTVIYWLAEVKDYNVEIRLSQEHQAYRWLGLEEACQLAQFKEMKATLQEGHQFLCSTPA

Legend:
Type in all cases: biochemical
Ap4A-RNA = assay: In vitro Ap4A-RNA decapping assay (cap-labelled RNA, thin-layer chromatography); conditions: recombinant protein 250 nM to 750 nM, 37° C., 30 min, TLC
Experimental: Briefly, using the Ap4A mixture (ATP and Ap4A) or Ap4A instead of ATP for in vitro transcription by MEGAshortscript™ T7 Transcription Kit (Life technologies; Cat. No. AM1354), we produced a 50 nt RNA. Template is the same as making 50 nt RNA for MEFs transfection. Note that if the mixture is used, this nucleotide mixture (ATP and Ap4A) still has all the components (lysine, inorganic pyrophosphatase etc) added during the Ap4A synthesis. In vitro transcription reaction was carried out at 37° C. for at least 4 h in a 20 μL reaction containing 6 pmol DNA template, 2 μL 10× reaction buffer, 2 μL of nucleotides (75 mM CTP, 75 mM UTP, 75 mM GTP), 2 μL of ATP/Ap4A mixture that we produced above, and 2 μL T7 enzyme mix (MEGAshortscript™ Kit, Life technologies, Cat. No. AM1354). After that, 1 μL TURBO DNase was added and incubated at 37° C. for 15 min to remove the DNA template. Unincorporated nucleotides were removed from the RNA preparation by Microspin G-25 Column (GE Healthcare, Cat. No. 27-5325-01), and the process was repeated twice. The radioactively labelled RNA was separated by 10% urea gel. […]
Decapping reaction products were resolved by PEI-cellulose TLC plates (Merk, Cat. No. 1057250001) and developed in 0.45 M (NH4)2SO4 in a glass chamber at room temperature. […] When required, signals were quantified by ImageQuantTL.

m^7G-RNA = assay: In vitro m7G-RNA decapping assay (cap-labelled RNA, thin-layer chromatography); conditions: recombinant protein 250 nM to 750 nM, 37° C., 30 min, TLC
[1] = Ap4A hydrolysis assay (32P-labelled Ap4A, thin-layer chromatography); conditions: 750 nM recombinant human NUDT2 or Nuclease P1 0.5 and 1 unit, TLC
Experimental: To prepare radioactive Ap4A, we incubated 60 μCi of radioactive α-^32P-ATP (Perkin Elmer, Cat. no. BLU003X250UC; 75 fmol in 20 ul or 3.75 nM concentration) with 1 μM recombinant human Lys-tRNA synthetase (G540Y mutant) at 37° C. overnight in a 20 μl solution [100 mM Tris-HCl, pH 8.0, 10 mM MgCl2, 0.1 mM ZnCl2, 1 mM Lysine and 0.1 units inorganic pyrophosphatase (Sigma-Aldrich, Cat. no. I1643)].
We resolved the reaction products using thin-layer chromatography, using PEI-cellulose TLC plates (Merk, Cat. No. 1057250001) and developing it in 0.45 M (NH4)2SO4 using a glass chamber at room temperature. In addition to the ATP already present in the reaction, we see the presence of Ap4A (FIG. 9D). From this Ap4A mix (ATP and Ap4A), we obtained purified radioactive Ap4A (FIG. 9E) by HPLC (purification service kindly provided by Hartmann Analytic, Germany). For some experiments (FIG. 9F-G) we used this Ap4A mix (ATP and Ap4A). However, for most experiments (FIG. 2, FIG. 9E) the purified radioactive Ap4A was used.
For hydrolysis assays with Ap4A (AppppA, in bold is 32P), reactions were conducted as above, but the RNA was replaced with appropriate amount of HPLC-purified Ap4A. Hydrolysis assays were conducted with 750 nM of recombinant human NUDT2 or with Nuclease P1 (0.5 unit and 1 unit). NUDT2 hydrolyzes Ap4A (AppppA, in bold is 32P) into α-^32P-AMP and α-^32P-ATP (FIG. 2D).

Row | Molecule | Ap4A-RNA decapping activity (Ap4A-RNA) | m7G-RNA decapping activity (m^7G-RNA) | Hydrolysis of Ap4A [1]
1 | B1 | only NUDT2 has Ap4A-RNA decapping activity |  | 
2 | B2 |  | poorly active | 
3 | B3 |  |  | able to efficiently hydrolyse Ap4A
4 | B4 | only NUDT2 has Ap4A-RNA decapping activity | can decap m^7G-RNAs | mostly asymmetrically hydrolyzed into ATP (Appp) and AMP (pA)

Source: patent publication US20250049894A1, “TREATMENT OF NUDT2 MUTATION” (UNIVERSITÉ DE GENÈVE, priority 2021, published 2025)
